Results on eight molecules are retold here after patent US20200190192A1 (SUTRO BIOPHARMA, published 2020).

Test [1] deals with T1, cynomolgus Tim-3 expressed on CHO cells (cynomolgus monkey).
T1 construct: also called cTim-3; Cyno Tim-3 (CHO)
T1 chain: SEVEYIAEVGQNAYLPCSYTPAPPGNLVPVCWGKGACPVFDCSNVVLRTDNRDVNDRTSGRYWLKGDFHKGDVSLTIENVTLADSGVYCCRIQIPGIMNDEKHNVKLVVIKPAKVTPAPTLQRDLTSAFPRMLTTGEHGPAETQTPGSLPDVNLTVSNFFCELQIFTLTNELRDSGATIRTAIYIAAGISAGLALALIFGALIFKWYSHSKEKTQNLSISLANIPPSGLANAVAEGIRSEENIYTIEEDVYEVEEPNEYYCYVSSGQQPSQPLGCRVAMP
The test can be described thus: cell binding, CHO-cyno Tim-3 cells.

The target of test [2] is T2, human Tim-3 (Biacore analyte; TIM-3-Fc or TIM-3-HIS, not said which) (human, UniProt Q8TDQ0 22-202).
T2 construct: also called TIM-3 antigen; not shown: Fc or HIS tag
Nature of the test: kinetics; method and analyte not given.

The target in test [3] is T3, human Tim-3 expressed on the cell surface (human, UniProt Q8TDQ0 22-301).
T3 construct: also called hTim-3; Human Tim-3 (CHO)
Nature of the test: cell binding, CHO-human Tim-3 cells.

In test [4] the target is T4, recombinant human Tim-3-Fc (R&D Systems, 2365-TM) (human, UniProt Q8TDQ0 22-202, biotinylated in the Galectin-9 competition ELISA (sites not given)).
T4 construct: Bought protein; also called huTim-3-Fc; biotinylated Tim-3-Fc; not shown: Fc of the bought fusion protein
Nature of the test: ELISA, coated human Tim-3-Fc.

In test [5] the target is T3, human Tim-3 expressed on the cell …. Nature of the test: cell binding (flow cytometry; cells not given).
The target of test [6] is T4, recombinant human Tim-3-Fc (R&D …). The test can be described thus: competition ELISA, biotin-Tim-3-Fc vs coated Galectin-9.
Test [7] concerns the target T3, human Tim-3 expressed on the cell …. Nature of the test: flow cytometry, CHO-human Tim-3 cells.
For test [8], the target named is T2, human Tim-3 (Biacore analyte; TIM-3-Fc …). Nature of the test: SPR Biacore, human Tim-3 (Fc or HIS not said).
Test [9] has as its target T4, recombinant human Tim-3-Fc (R&D …). The test can be described thus: SPR Biacore, human Tim-3-Fc.
Test [10] deals with T5, recombinant cynomolgus Tim-3-Fc (R&D Systems, 7914-TM) (cynomolgus monkey).
T5 construct: Bought protein; also called cyTim-3-Fc; Cyno Tim-3-Fc; not shown: Fc of the bought fusion protein
T5 chain: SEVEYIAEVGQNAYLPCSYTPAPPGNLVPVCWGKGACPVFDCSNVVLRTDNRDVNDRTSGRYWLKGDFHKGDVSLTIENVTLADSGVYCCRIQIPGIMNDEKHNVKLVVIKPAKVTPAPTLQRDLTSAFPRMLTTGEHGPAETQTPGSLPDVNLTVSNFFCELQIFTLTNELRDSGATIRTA
Nature of the test: ELISA, coated cyno Tim-3-Fc.

The target in test [11] is T6, human PD-1 expressed on CHO cells (human, UniProt Q15116 25-288).
T6 construct: also called hPD-1; CHO-hPD-1
The test can be described thus: flow cytometry, CHO-human PD-1 cells.

Test [12] concerns the target T3, human Tim-3 expressed on the cell …. Nature of the test: flow cytometry, CHO-human Tim-3 cells. The source holds these as a separate data set.
The target in test [13] is T4, recombinant human Tim-3-Fc (R&D …). Nature of the test: AlphaLISA bridging: Tim-3-Fc acceptor beads + PD-1 donor beads (signal needs both).
Test [14] has as its target T1, cynomolgus Tim-3 expressed on CHO cells. The test can be described thus: flow cytometry, CHO-cyno Tim-3 cells.
Test [15] has as its target T7, biotinylated recombinant human PD-1 (AcroBiosystems) (human, UniProt Q15116 25-167, limits assumed, biotinylated (sites not given)).
T7 construct: Bought protein; also called biotinylated PD-1
The test can be described thus: competition, flow cytometry: biotin-PD-1 binding to CHO-human PD-L1 cells.

For test [16], the target named is T1, cynomolgus Tim-3 expressed on CHO cells. The test can be described thus: flow cytometry, CHO-cyno Tim-3 cells.
Test [17] addresses T4, recombinant human Tim-3-Fc (R&D …). The test can be described thus: competition ELISA, biotin-Tim-3-Fc vs coated Galectin-9. This is another data set of the same source.

Like-named read-outs stand apart in the source and are kept apart here.

B1: Mouse hybridoma clone 22E11 (antibody, V domains shown)
VH: QVQLKESGPDLVAPSQSLSITCTVSGFSLTSYGVHWVRQPPGKGLEWLVVIWSDGSTTYNSALKSRLTISKDNSKSQVFLKMNSLQTDDTAMYYCARQGGYRYDDAMDYWGQGTSVAVSS
VL: DIVLTQSPASLAVSLGQRATISCKASQSVDYDGNSYVNWYQQKPGQPPKLLIYAASNLESGIPARFSGSGSGTDFTLNIHPVEEEDAATYYCQQSNEDPYTFGGGTKLEIK
notes: Mouse antibody; also called m22E11; 250.180.2.22E11
On to B1, for which, in test [1], the binding result is on record as “binds”. In test [2], this molecule yielded a dissociation constant Kd of 1.5 nM, a koff of 0.000334 s⁻¹ and a kon of 223000 M⁻¹ s⁻¹. Besides, the binding result in test [3] was “binds”.

B2: Mouse hybridoma clone 2D5 (antibody, V domains shown)
VH: EVQLQQSGPELVKPGTSMKISCRASGYPFIGYTMNWVKQSHGGNLEWIGLINPYNGITTYNQKFKGRATLSVDTSSTIAYMELLSLTSDDSAEYYCARSFFYGSSNDWLVYWGQGTLVTVSA
VL: DVLMTQTPLSLPVSLGDQASISCRSSQSIVHTNGNTYLEWYLQKPGQSPKLLIYKVSNRFSGVPDRFSGSGSGTDFTLKISRVEAEDLGVYYCFQGSHVPWTFGGGTELEIK
notes: Mouse antibody; also called 421.51.2.2D5.5E9
Consider B2, for which the binding result in test [1] is “no binding”. In addition, in test [2], the affinity, expressed as Kd, was 0.431 nM; the koff was 0.000166 s⁻¹; the kon was determined as 386000 M⁻¹ s⁻¹. Also, the binding result in test [3] is “binds”.

B3: SRP1497-A05 (antibody, V domains shown)
VH: EVQLVESGGGLVQPGGSLRLSCAASGFNISNYAIHWVRQAPGKGLEWVADITPDGGYTDYADSVKDRFTISADTSKNTAYLQMNSLRAEDTAVYYCARGYVYRMWDSFDYWGQGTLVTVSS
VL: not shown
notes: IgG with trastuzumab LC; HIS- and FLAG-tagged
For B3, the EC50 in [4] was 0.24 nM; in test [10], 6.19 nM. The Kd in test [5] amounted to 5.6 nM; in [7], 0.5 nM; in test [8] it was 64.7 nM; in [9], 2.27 nM. The IC50 in [6] was 1.1 nM. Also, the koff is 0.0219 s⁻¹ in test [8] and 0.000458 s⁻¹ in test [9]. The on-rate constant (kon) in [8] was found to be 338000 M⁻¹ s⁻¹; in test [9], 202000 M⁻¹ s⁻¹.

B4: 1353-G10-scFv × 1649-A01-Fab (bispecific antibody, V domains shown)
VH 1: EVQLVQSGAEVKKPGASVKVSCKASGYRFPHYGISWVRQAPGQGLEWMGWISAYNGNTNYAQKLQGRVTMTTDTSTNTAYMELRSLRSDDTAVYYCARDVDYGTGSGYWGQGTLVTVSS
VL 1: SYELTQPPSVSVSPGQTARITCSGDALPKQYAYWYQQKPGQAPVMVIYKDTERPSGIPERFSGSSSGTKVTLTISGVQAEDEADYYCQSADNSITYRVFGGGTKVTVL
VH 2: EVQLVESGGGLVQPGGSLRLSCAASGFNISRYYIHWVRQAPGKGLEWVAGITPVRGYTEYADSVKDRFTISADTSKNTAYLQMNSLRAEDTAVYYCARGYVYRMWDSYDYWGQGTLVTVSS
VL 2: not shown
notes: scFv-Fc × Fab bi-specific; also called Sample C; protein sample C
For B4, the Kd is 1.3 nM in test [11], 4.4 nM in test [12] and 29 nM in test [14]. The EC50 in test [13] stood at 0.05 nM. In addition, the IC50 in test [15] was 11 nM.

B5: SRP1649-F06 (antibody, V domains shown)
VH: EVQLVESGGGLVQPGGSLRLSCAASGFNIGNYAIHWVRQAPGKGLEWVADITPGQGYTEYADSVKDRFTISADTSKNTAYLQMNSLRAEDTAVYYCARGYVYRMWDSYDYWGQGTLVTVSS
VL: not shown
notes: as for B3
As for B5, the Kd in test [16] is 5.6 nM. Also, in test [7], the Kd worked out at 0.2 nM. In test [8], this molecule yielded a Kd of 17.3 nM, a koff of 0.00393 s⁻¹ and a kon of 227000 M⁻¹ s⁻¹. Moreover, in [17], the IC50 was determined as 0.63 nM.

B6: SRP1649-A01 (antibody, V domains shown)
VH: EVQLVESGGGLVQPGGSLRLSCAASGFNISRYYIHWVRQAPGKGLEWVAGITPVRGYTEYADSVKDRFTISADTSKNTAYLQMNSLRAEDTAVYYCARGYVYRMWDSYDYWGQGTLVTVSS
VL: not shown
notes: as for B3
On to B6, for which the Kd in test [16] came out at 0.5 nM. In test [7], this molecule showed a Kd of 0.4 nM. In [8], the Kd worked out at 17.4 nM, the koff turned out to be 0.00117 s⁻¹ and the kon was 67100 M⁻¹ s⁻¹. Besides, the IC50 in test [17] came out at 0.26 nM.

B7: SRP1497-A01 (antibody, V domains shown)
VH: EVQLVESGGGLVQPGGSLRLSCAASGFNISNYAIHWVRQAPGKGLEWVADITPDGGYTDYADSVKGRFTISADTSKNTAYLQMNSLRAEDTAVYYCARGYVYRMWDSFDYWGQGTLVTVSS
VL: not shown
notes: IgG with trastuzumab LC, cell-free expressed; constructs were HIS- and FLAG-tagged
For the molecule B7, the EC50 in [4] was found to be 0.3 nM. In [5], this molecule had a Kd of 1.17 nM. Moreover, the IC50 in test [6] was 0.8 nM. In [9], the Kd was determined as 2.15 nM, the koff worked out at 0.000425 s⁻¹ and the kon was determined as 197000 M⁻¹ s⁻¹. Further, the EC50 in [10] amounted to 22.6 nM.

B8: SRP1497-A02 (antibody, V domains shown)
VH: EVQLVESGGGLVRPGGSLRLSCAASGFNISNYAIHWVRQAPGKGLEWVADITPDGGYTDYADSVKGRFTISADTSKNTAYLQMNSLRAEDTAVYYCARGYVYRMWDSFDYWGQGTLVTVSS
VL: not shown
notes: as for B3
As for B8, in test [4], the EC50 came out at 0.34 nM. In [5], this molecule displayed a Kd of 1.54 nM. Besides, the IC50 in test [6] came out at 1 nM. Also, in test [9], the Kd amounted to 2.95 nM, the koff was determined as 0.000544 s⁻¹ and the kon came out at 185000 M⁻¹ s⁻¹. Further, the EC50 in test [10] stood at 13.7 nM.
